Consider one molecule from PMC8748658.

The test deals with L1-70-Myc. Description: ELISA; purified L1-70-Myc coated in PBS on 96-well plates; purified Top1-HA at 0.1, 0.5, 1, 5 and 10 nM, 2 h at 37 °C; detection with rabbit anti-HA, TMB. In general terms: An ELISA detects its analyte on a solid surface through an enzyme-linked reagent.

B1: Top1-HA (enzyme)
chain: MSGDHLHNDSQIEADFRLNDSHKHKDKHKDREHRHKEHKKDKDKDREKSKHSNSEHKDSEKKHKEKEKTKHKDGSSEKHKDKHKDRDKERRKEEKIRAAGDAKIKKEKENGFSSPPRIKDEPEDDGYFAPPKEDIKPLKRLRDEDDADYKPKKIKTEDIKKEKKRKSEEEEDGKLKKPKNKDKDKKVAEPDNKKKKPKKEEEQKWKWWEEERYPEGIKWKFLEHKGPVFAPPYEPLPESVKFYYDGKVMKLSPKAEEVATFFAKMLDHEYTTKEIFRKNFFKDWRKEMTNDEKNTITNLSKCDFTQMSQYFKAQSEARKQMSKEEKLKIKEENEKLLKEYGFCVMDNHRERIANFKIEPPGLFRGRGNHPKMGMLKRRIMPEDIIINCSKDAKVPSPPPGHKWKEVRHDNKVTWLVSWTENIQGSIKYIMLNPSSRIKGEKDWQKYETARRLKKCVDKIRNQYREDWKSKEMKVRQRAVALYFIDKLALRAGNEKEEGETADTVGCCSLRVEHINLHPELDGQEYVVEFDFPGKDSIRYYNKVPVEKRVFKNLQLFMENKQPEDDLFDRLNTGILNKHLQDLMEGLTAKVFRTYNASITLQQQLKELTAPDENVPAKILSYNRANRAVAILCNHQRAPPKTFEKSMMNLQSKIDAKKDQLADARRDLKSAKADAKVMKDAKTKKVVESKKKAVQRLEEQLMKLEVQATDREENKQIALGTSKLNYLDPRITVAWCKKWGVPIEKIYNKTQREKFAWAIDMTDEDYEF
B1: the concentration of Top1-HA at saturation was found to be 1 nM.
